Test results: patent publication US20230338555A1 (IONIS PHARMACEUTICALS, published 2023)
Where two headings read alike, the source gives them in different places. Ends that are not written are not given here. * marks the point of attachment. Azidoacetyl = [N-]=[N+]=NCC(=O)*

T1: human sortilin stably expressed on HEK 293 cells (HEK-SORT1 cells) (human, UniProt Q99523 78-831)
T1 sequence (looked up): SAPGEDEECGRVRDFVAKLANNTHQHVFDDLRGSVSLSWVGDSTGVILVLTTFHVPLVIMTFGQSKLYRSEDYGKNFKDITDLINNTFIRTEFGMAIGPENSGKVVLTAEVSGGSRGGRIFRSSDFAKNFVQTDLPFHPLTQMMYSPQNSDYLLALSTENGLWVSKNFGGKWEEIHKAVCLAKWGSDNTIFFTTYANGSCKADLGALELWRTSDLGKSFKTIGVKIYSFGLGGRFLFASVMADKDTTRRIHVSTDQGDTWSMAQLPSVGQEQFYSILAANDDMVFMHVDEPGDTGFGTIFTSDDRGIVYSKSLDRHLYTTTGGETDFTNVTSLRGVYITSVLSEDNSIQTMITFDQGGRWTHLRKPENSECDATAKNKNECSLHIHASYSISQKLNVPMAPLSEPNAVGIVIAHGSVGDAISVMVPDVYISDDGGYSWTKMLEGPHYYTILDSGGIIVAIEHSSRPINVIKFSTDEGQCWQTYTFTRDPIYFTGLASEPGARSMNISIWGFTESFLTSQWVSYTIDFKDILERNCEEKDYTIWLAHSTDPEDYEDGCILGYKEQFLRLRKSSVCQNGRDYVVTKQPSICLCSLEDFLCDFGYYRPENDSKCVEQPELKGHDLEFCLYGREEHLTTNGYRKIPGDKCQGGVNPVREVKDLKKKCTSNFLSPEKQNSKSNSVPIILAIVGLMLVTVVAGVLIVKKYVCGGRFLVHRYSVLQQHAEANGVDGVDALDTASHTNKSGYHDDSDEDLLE

B1: Compound No. 18-AJ9998, Morpholino oligomer-neurotensin conjugate 11 (Cy3 labeled) (peptide)
peptide: XLYENKPRRPYIL
modifications: X at position 1 is 2-azido-acetyl lysine joined via BCN to a Cy3-labeled phosphorodiamidate morpholino oligomer
B2: Compound No. 1270697, … peptide conjugated to 20-mer MOE oligonucleotide with 3'-Cy3 (peptide)
peptide: K(Azidoacetyl)LYENKPKKPYIL
modifications: not fully specified; printed as 2-azido-acetyl-KLYENKPKKPYIL; also: azide joined via triazolo-BCN carbamate/6-aminohexanol linker to 5' end of 20-mer MOE oligonucleotide CCAGGCTGGTTATGACTCAG (uniform MOE, phosphodiester, 3'-Cy3)
B3: Compound 17-AH-1492, Cy3-labeled extended neurotensin (eNT, …) (peptide)
peptide: KPPPAGSSPGLYENKPRRPYIL
modifications: not fully specified (residue 1); also: Cy3 label attached by BCN click to the azide
B4: Compound No. 1270698, XLYENKPKRPYIL peptide conjugated to 20-mer MOE oligonucleotide with 3'-Cy3 (peptide)
peptide: XLYENKPKRPYIL
modifications: not fully specified; X at position 1 is 2-azido-acetyl lysine, joined via triazolo-BCN carbamate / 6-aminohexanol linker to 5' end of … (SEQ ID NO 2, uniform MOE, phosphodiester, 3'-Cy3)
B5: Compound No. 1162756, extended neurotensin (eNT, XPPPAGSSPGLYENKPRRPYIL) conjugated to 20-mer MOE oligonucleotide with 3'-Cy3 (peptide)
peptide: KPPPAGSSPGLYENKPRRPYIL
modifications: not fully specified (residue 1); also: X side chain clicked via BCN (triazole) and 6-aminohexanol linker to 5' end of oligonucleotide CCAGGCTGGTTATGACTCAG (MOE, 3'-Cy3)
B6: 1162756 duplex (Compound No. 1162756 complexed to complementary MOE oligonucleotide …) (peptide)
peptide: KPPPAGSSPGLYENKPRRPYIL
modifications: not fully specified (residue 1); also: oligonucleotide hybridized to complementary MOE strand CTGAGTCATAACCAGCCTGG (duplex)
B7: Compound No. 1252444, XAGSIKPPPAGSSPGLYENKPRRPYIL peptide conjugated to 20-mer MOE oligonucleotide with 3'-Cy3 (peptide)
peptide: KAGSIKPPPAGSSPGLYENKPRRPYIL
modifications: not fully specified (residue 1); also: X side chain clicked via BCN (triazole) and 6-aminohexanol linker to 5' end of oligonucleotide CCAGGCTGGTTATGACTCAG (MOE, 3'-Cy3)
B8: Compound 17-AE-9199, Cy3-labeled [SO5P]LYEN[azido-acetyl-K]PRRPYIL peptide (peptide)
peptide: LYENXPRRPYIL
modifications: not fully specified; position 1 is SO5P (5-oxoproline); internal lysine (LYEN-K) carries the azido-acetyl group joined to Cy3-BCN reagent (Cy3 label)
B9: Compound No. 1252445, XAGMSGASAGLYENKPRRPYIL peptide conjugated to 20-mer MOE oligonucleotide with 3'-Cy3 (peptide)
peptide: KAGMSGASAGLYENKPRRPYIL
modifications: not fully specified (residue 1); also: X side chain clicked via BCN (triazole) and 6-aminohexanol linker to 5' end of oligonucleotide CCAGGCTGGTTATGACTCAG (MOE, 3'-Cy3)
B10: Compound No. 1091165, [SO5P]-LYEN[azido-acetyl-K]PRRPYIL peptide conjugated to 20-mer MOE oligonucleotide with 3'-Cy3 (peptide)
peptide: LYENXPRRPYIL
modifications: not fully specified; position 1 is SO5P (5-oxoproline); internal lysine (LYEN-K) side chain azido-acetyl joined via triazolo-BCN carbamate / 6-aminohexanol linker to 5' end of … (SEQ ID NO 2, uniform MOE, phosphodiester, 3'-Cy3)
B11: Compound No. 1252443, XPAPSGPSPGLYENKPRRPYIL peptide conjugated to 20-mer MOE oligonucleotide with 3'-Cy3 (peptide)
peptide: KPAPSGPSPGLYENKPRRPYIL
modifications: not fully specified (residue 1); also: X side chain clicked via BCN (triazole) and 6-aminohexanol linker to 5' end of oligonucleotide CCAGGCTGGTTATGACTCAG (MOE, 3'-Cy3)

Experiments:
Experiment in all cases: cell-based or functional assay
[1] = target: T1, human sortilin stably expressed on HEK …
[2] = target: T1, human sortilin stably expressed on HEK …; remark: listed apart in the source
[3] = target: T1, human sortilin stably expressed on HEK …; remark: listed apart in the source
[4] = target: T1, human sortilin stably expressed on HEK …; remark: listed apart in the source
[5] = target: T1, human sortilin stably expressed on HEK …; remark: listed apart in the source
[6] = target: T1, human sortilin stably expressed on HEK …; remark: listed apart in the source

| Binder | Mean Fluorescence Intensity (MFI), uptake 37C-4C, at 12 nM [4] [MFI] | Mean Fluorescence Intensity (MFI), uptake 37C-4C, at 37 nM [4] [MFI] | Mean Fluorescence Intensity (MFI), uptake 37C-4C, at 111 nM [4] [MFI] | Mean Fluorescence Intensity (MFI), uptake 37C-4C, at 333 nM [4] [MFI] | Mean Fluorescence Intensity (MFI), uptake 37C-4C, at 1000 nM [4] [MFI] | Mean Fluorescence Intensity (MFI), uptake 37C-4C, at 7 nM [5] [MFI] | Mean Fluorescence Intensity (MFI), uptake 37C-4C, at 22 nM [5] [MFI] | Mean Fluorescence Intensity (MFI), uptake 37C-4C, at 76 nM [5] [MFI] | Mean Fluorescence Intensity (MFI), uptake 37C-4C, at 260 nM [5] [MFI] | Mean Fluorescence Intensity (MFI), uptake 37C-4C, at 882 nM [5] [MFI] | Mean Fluorescence Intensity (MFI), uptake 37C-4C, at 3000 nM [5] [MFI] | also measured |
| --- | --- | --- | --- | --- | --- | --- | --- | --- | --- | --- | --- | --- |
| B1 | – | – | – | – | – | – | – | – | – | – | – | Mean Fluorescence Intensity (MFI), uptake 37C-4C, at 12 nM [1]: 70 MFI; Mean Fluorescence Intensity (MFI), uptake 37C-4C, at 37 nM [1]: 75 MFI; Mean Fluorescence Intensity (MFI), uptake 37C-4C, at 111 nM [1]: 86 MFI; Mean Fluorescence Intensity (MFI), uptake 37C-4C, at 333 nM [1]: 138 MFI; Mean Fluorescence Intensity (MFI), uptake 37C-4C, at 1000 nM [1]: 267 MFI; Mean Fluorescence Intensity (MFI), uptake 37C-4C, at 3000 nM [1]: 631 MFI |
| B2 | – | – | – | – | – | – | – | – | – | – | – | Mean Fluorescence Intensity (MFI), uptake 37C-4C, at 12 nM [2]: 39 MFI; Mean Fluorescence Intensity (MFI), uptake 37C-4C, at 37 nM [2]: 51 MFI; Mean Fluorescence Intensity (MFI), uptake 37C-4C, at 111 nM [2]: 86 MFI; Mean Fluorescence Intensity (MFI), uptake 37C-4C, at 333 nM [2]: 185 MFI; Mean Fluorescence Intensity (MFI), uptake 37C-4C, at 1000 nM [2]: 474 MFI |
| B3 | 167 | 390 | 724 | 1030 | 1260 | 84 | 266 | 593 | 869 | 1180 | 1440 | Mean Fluorescence Intensity (MFI), uptake 37C-4C, at 12 nM [3]: 108 MFI; Mean Fluorescence Intensity (MFI), uptake 37C-4C, at 37 nM [3]: 334 MFI; Mean Fluorescence Intensity (MFI), uptake 37C-4C, at 111 nM [3]: 763 MFI; Mean Fluorescence Intensity (MFI), uptake 37C-4C, at 333 nM [3]: 1100 MFI; Mean Fluorescence Intensity (MFI), uptake 37C-4C, at 1000 nM [3]: 1360 MFI |
| B4 | – | – | – | – | – | – | – | – | – | – | – | Mean Fluorescence Intensity (MFI), uptake 37C-4C, at 12 nM [2]: 35 MFI; Mean Fluorescence Intensity (MFI), uptake 37C-4C, at 37 nM [2]: 48 MFI; Mean Fluorescence Intensity (MFI), uptake 37C-4C, at 111 nM [2]: 78 MFI; Mean Fluorescence Intensity (MFI), uptake 37C-4C, at 333 nM [2]: 155 MFI; Mean Fluorescence Intensity (MFI), uptake 37C-4C, at 1000 nM [2]: 394 MFI |
| B5 | 67 | 119 | 246 | 812 | 1390 | 51 | 122 | 309 | 937 | 2070 | 3380 | Mean Fluorescence Intensity (MFI), uptake 37C-4C, at 12 nM [3]: 61 MFI; Mean Fluorescence Intensity (MFI), uptake 37C-4C, at 37 nM [3]: 124 MFI; Mean Fluorescence Intensity (MFI), uptake 37C-4C, at 111 nM [3]: 364 MFI; Mean Fluorescence Intensity (MFI), uptake 37C-4C, at 333 nM [3]: 839 MFI; Mean Fluorescence Intensity (MFI), uptake 37C-4C, at 1000 nM [3]: 1560 MFI; Mean Fluorescence Intensity (MFI), uptake 37C-4C, at 7 nM [6]: 53 MFI; Mean Fluorescence Intensity (MFI), uptake 37C-4C, at 22 nM [6]: 102 MFI; Mean Fluorescence Intensity (MFI), uptake 37C-4C, at 76 nM [6]: 259 MFI; Mean Fluorescence Intensity (MFI), uptake 37C-4C, at 260 nM [6]: 817 MFI; Mean Fluorescence Intensity (MFI), uptake 37C-4C, at 882 nM [6]: 2100 MFI; Mean Fluorescence Intensity (MFI), uptake 37C-4C, at 3000 nM [6]: 4220 MFI |
| CPPPAGSSPGLYENKPRRPYIL (not fully specified) | – | – | – | – | – | – | – | – | – | – | – | Mean Fluorescence Intensity (MFI), uptake 37C-4C, at 7 nM [6]: 47 MFI; Mean Fluorescence Intensity (MFI), uptake 37C-4C, at 22 nM [6]: 69 MFI; Mean Fluorescence Intensity (MFI), uptake 37C-4C, at 76 nM [6]: 205 MFI; Mean Fluorescence Intensity (MFI), uptake 37C-4C, at 260 nM [6]: 675 MFI; Mean Fluorescence Intensity (MFI), uptake 37C-4C, at 882 nM [6]: 1810 MFI; Mean Fluorescence Intensity (MFI), uptake 37C-4C, at 3000 nM [6]: 3140 MFI |
| B6 | – | – | – | – | – | – | – | – | – | – | – | Mean Fluorescence Intensity (MFI), uptake 37C-4C, at 12 nM [3]: 41 MFI; Mean Fluorescence Intensity (MFI), uptake 37C-4C, at 37 nM [3]: 52 MFI; Mean Fluorescence Intensity (MFI), uptake 37C-4C, at 111 nM [3]: 71 MFI; Mean Fluorescence Intensity (MFI), uptake 37C-4C, at 333 nM [3]: 130 MFI; Mean Fluorescence Intensity (MFI), uptake 37C-4C, at 1000 nM [3]: 278 MFI |
| B7 | – | – | – | – | – | 90 | 208 | 609 | 1530 | 2510 | 3390 | – |
| B8 | 174 | 378 | 825 | 1090 | 1220 | – | – | – | – | – | – | – |
| KLYENKPRKPYIL (not fully specified (residue 1)) [Compound No. 1270696, XLYENKPRKPYIL peptide conjugated to 20-mer MOE oligonucleotide with 3'-Cy3] | – | – | – | – | – | – | – | – | – | – | – | Mean Fluorescence Intensity (MFI), uptake 37C-4C, at 12 nM [2]: 43 MFI; Mean Fluorescence Intensity (MFI), uptake 37C-4C, at 37 nM [2]: 61 MFI; Mean Fluorescence Intensity (MFI), uptake 37C-4C, at 111 nM [2]: 138 MFI; Mean Fluorescence Intensity (MFI), uptake 37C-4C, at 333 nM [2]: 312 MFI; Mean Fluorescence Intensity (MFI), uptake 37C-4C, at 1000 nM [2]: 1100 MFI |
| B9 | – | – | – | – | – | 55 | 85 | 306 | 868 | 1950 | 2880 | – |
| B10 | 45 | 53 | 60 | 73 | 97 | – | – | – | – | – | – | – |
| B11 | – | – | – | – | – | 53 | 130 | 413 | 1230 | 2430 | 3390 | – |
